# Test results from patent US20170204187A1, “METHODS OF TREATING AND PREVENTING CANCER DRUG RESISTANCE” (Genentech, Inc., priority 2014, published 2017).
# Tested on: LOX-IMVI cells
# Experiment: Secreted factor rescue screen on LOX-IMVI (FIG. 23)
# Format: cell-based
# From the text: FIG. 23 A-C.|Vemurafenib resistant and sensitive cell lines can be used to determine and anticipate paths to resistance in patients. LOX-IMVI cells were rescued by FGF1, FGF2, EGF, and HGF in the screen. A, LOX-IMVI VemR cells were re-sensitized to PLX4032 by FGFR inhibition. B, Dual resistant LOX-IMVI VemR/FGFRi (i.e., resistant to vemurafenib and FGFR inhibitor) cells were re-sensitized to PLX4032 by EGFR inhibition. C, Triple resistant LOX-IMVI VemR/FGFRi/Erlotinib cells were re-sensitized to PLX4032 by MET inhibition.
molecule,measurement,value
"EGF: secreted factor (protein, UniProt P01133 23-1207, looked up, Pro-epidermal growth factor) Pro-epidermal growth factor: PQHWSCPEGTLAGNGNSTCVGPAPFLIFSHGNSIFRIDTEGTNYEQLVVDAGVSVIMDFHYNEKRIYWVDLERQLLQRVFLNGSRQERVCNIEKNVSGMAINWINEEVIWSNQQEGIITVTDMKGNNSHILLSALKYPANVAVDPVERFIFWSSEVAGSLYRADLDGVGVKALLETSEKITAVSLDVLDKRLFWIQYNREGSNSLICSCDYDGGSVHISKHPTQHNLFAMSLFGDRIFYSTWKMKTIWIANKHTGKDMVRINLHSSFVPLGELKVVHPLAQPKAEDDTWEPEQKLCKLRKGNCSSTVCGQDLQSHLCMCAEGYALSRDRKYCEDVNECAFWNHGCTLGCKNTPGSYYCTCPVGFVLLPDGKRCHQLVSCPRNVSECSHDCVLTSEGPLCFCPEGSVLERDGKTCSGCSSPDNGGCSQLCVPLSPVSWECDCFPGYDLQLDEKSCAASGPQPFLLFANSQDIRHMHFDGTDYGTLLSQQMGMVYALDHDPVENKIYFAHTALKWIERANMDGSQRERLIEEGVDVPEGLAVDWIGRRFYWTDRGKSLIGRSDLNGKRSKIITKENISQPRGIAVHPMAKRLFWTDTGINPRIESSSLQGLGRLVIASSDLIWPSGITIDFLTDKLYWCDAKQSVIEMANLDGSKRRRLTQNDVGHPFAVAVFEDYVWFSDWAMPSVMRVNKRTGKDRVRLQGSMLKPSSLVVVHPLAKPGADPCLYQNGGCEHICKKRLGTAWCSCREGFMKASDGKTCLALDGHQLLAGGEVDLKNQVTPLDILSKTRVSEDNITESQHMLVAEIMVSDQDDCAPVGCSMYARCISEGEDATCQCLKGFAGDGKLCSDIDECEMGVPVCPPASSKCINTEGGYVCRCSEGYQGDGIHCLDIDECQLGEHSCGENASCTNTEGGYTCMCAGRLSEPGLICPDSTPPPHLREDDHHYSVRNSDSECPLSHDGYCLHDGVCMYIEALDKYACNCVVGYIGERCQYRDLKWWELRHAGHGQQQKVIVVAVCVVVLVMLLLLSLWGAHYYRTQKLLSKNPKNPYEESSRDVRSRRPADTEDGMSSCPQPWFVVIKEHQDLKNGGQPVAGEDGQAADGSMQPTSWRQEPQLCGMGTEQGCWIPVSSDKGSCPQVMERSFHMPSYGTQTLEGGVEKPHSLLSANPLWQQRALDPPHQMELTQ",rescue in the secreted factor screen,rescued
